Data as given in the nanobody polyreactivity screen of Harvey et al. (2022).

Experiment: yeast display, Sf9 membrane polyspecificity reagent, FACS + sequencing; frameworks hold sequencing errors
How it was run: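 In a synthetic yeast display library (Saccharomyces cerevisiae BJ5465), nanobody expression was induced with galactose for 36–48 hours. FACS gates were set low and high (top ~1%) using anti-HA fluorescence for expression and streptavidin fluorescence for binding of the Sf9 membrane reagent. Each polyreactivity label is drawn from the gate of origin.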

Sequence	polyreactivity (PSR sort gate)
QVQLVESGGALVQAGGSLRLSCAASGRTFGINAMGWYRQAPGKERELVAAIRTGGSTYYADSVKGRFTISRDNAKNTVYLQMNSLKPADTAVYYCAAKAYRRYTIPPYGYWGQGTQVTVSS	high polyreactivity
QVQLVESGGGLVQAGGSLRLSCAPSGFIYSKYVIGWNRPAPGKERELVAAITRSGSSTYYADSVKGRFTISRDNAKNTDYLQMNSLKPEDTAVYYCAADGGYYDDDYWGQGTQVTVSS	high polyreactivity
QVQLVESGGGLVQAGGSLRLSCAASGRTFLYYAMGWYRQAPGKERELVAAIDWSDDSTYYADSVKGRFTISRDNAKNTVYLQMNSLKPEDTAVYYCATDGLYLSWQYSWEELYYWGQGTQVTVSS	high polyreactivity
QVQLVESGGGLVQAGGSLRLSCAASGRIFGFYAMGWYRQAPGKERELVADITSGGSTNYADSVKGRFTISRDNAKNTVYLQMNSLKPEDTAVYYCNALSYVWYRYPGNWDEDDYWGQGTQVTVSS	low polyreactivity
QVQLVESGGGLLQAGGSLRLSCAASGSTFSRYTMGWYRQAPGKERELVAAISYRGGSTYYADSVKGRFTISRDNAKNTVYLQMNSLKPEDTAVYYCAAEFRVEGSDYDYWGQGTQVTVSS	low polyreactivity
QVQHVESGGGLVQAGGSLRLSCAASGSTFAVYTMGWYRQAPGKERELSTSYADSVKGRFTISRDNAKNTVYLQMNSLKPEDTAVYYCNRDFYEFDSNSYRFDYWGQGTQVTVSS	low polyreactivity
QVQLVESGGGLVQAGGSLRLSCAASGSIFEQYTMGWYRQAPGKERELVAAISRRYGRTYYADSVKGRFTISRDNAKNTVYLQMNSLKPEETAVYYCNTVYYGNFYSTRYDYWGHGTQVTVSS	high polyreactivity
QVQLVESGGGLVQAGGSLRLNCAASGNIFISYAMGWYRQAPGKERELVAAISRSGGSTYYADSVKGRFTISRDYAKNTVYLQMNSLKPEDTAVYYCAAYIGPGRYGSWGQGTQVTVSS	high polyreactivity
QVQLVESGGGLVQAGGSLRLSCAASGSTFYGYAMGWSRQAPGKERELDAVINYRGDRTYYADSVKGRFTISRDNAKNTVYLQMNSLKPEDTAVYYCAARYRVYYLPGYEYWGQGTQVTVSS	high polyreactivity
QVQLVESGGGLVQAGGSLRLSCAASGRIFDYYAMGWYRQAPGKERELVARITSGGTTNYADSVKGRFTISRDNAKNPVYLQMNSLKPEDTAVYYCAADVYGTVRRVGWYYVGEGYDYWGQGTQVTVSS	low polyreactivity
QVQLVESGGGLVQAGGSLRLSCAASGRVYAMGWYRQAPGKERELVAPITTSGGRTYYADSVKGRFTISRDNAKNSVYCQMNSLKPEDTAVYYCNKPGYPPSDMYYWGQGTQVNVSS	low polyreactivity
QVQLVESGGGLVQAGGSLRISCAASGRIFRVYAMGWYRQAPGKERELVAAISYSGGRTFYADSVKGRFTNSRDNAKNTVYLQMNSLKPEDTAVYYCAATSYSTQALPPFDYWGQGTQVTVSS	low polyreactivity
QVQLVESGGGLVQAGGSLRLSCAASGRIFYPYAMGWYRQAPGKERELVGYSRGGSTNYADSVKGRFTISRDNAKNTVYLQMNSLKPEDTAVYYCARDVHRSGYLIFDYWGQGTQVTVSS	low polyreactivity
QVQLVESGGGLVQAGGSLRLSCAASGRTFGEYAMGWYRQAPGKERELVAAISSAGSTYYADSVKGRFTISRDNAKNTVYLQMNSLKPEDTAVYYCAASRKYGYGYWGQGTQVTVSS	high polyreactivity
QVQLVESGGGIVQAGGSLRLSCAASGSTFRYYARGWSRQAPGKERELVATITCNAAGTYYADSVKGRFTISRDNAKNTVYLQMNSLKPEDTAVYYCAAAPWEWYHYGYYYWGQGTQVTVSS	low polyreactivity
QLQLVESVGGLVQAGGSLRLSCASSGRTFDYNAMGWYRQAPGKERELVARISNGDSTYADSVKGRFTISRDNAKNTVYLQMNSLKPVDTAVYYCAKSTRRGGVALGEYDYWGQGTQVTVSS	low polyreactivity
QVQLVESGGGLVQAGGSLRLSCAASGIILDTYDMGWYRQAPGKERELVAVISWRGRTYYADSVKGRFTISRDNAKNTVYLQMNSLKPEDTAVYYCAAYSYRSVRWGWTSYDYWGQGTQVTVSS	high polyreactivity
QVQLVESGGGLVQAGGSLRLSCAASGINFSFYTMRWYRQAPGIERELVAAISSGGDTYYADSVNGRFTNSRDNAKNTVYLQMNSLKPEVTAVYYCAVDQYDRTTAFCYWYPYYYWGQGTQVTVSS	low polyreactivity
QVQLVESGGGLLQAGGSLRLSCAASGYIFQYYAMGWYRQAPGKERELVAAITGGGSTKYADSVKGRFTISRDNAKNTVYLQMNSLKPEDTAVYYCAASLWYRISKYDYWGQGTQVTVSS	high polyreactivity
QVQLVESGGGLVQAGGRLRLSCAASGGTFSKNAIGWYRQAPGKEREFVAAISSTGGDTTYYADSVKGRFTISRDNAKNTVYLQMNSVKPEDTAFYYCNSDYIFWPWYDYWGQGTQVTVSS	low polyreactivity
QVQLVESGGGLVQAGGSLRLSCAASGIIFENYAMGWYRQAPGKERELVAAITIGGSTYYADSVKGRFTISRDNAKNTVYLQMNSLKPEDTAVYYCAARSGAQRGGGYWGQGTQVTVSS	high polyreactivity
QVQLVESGVGLVQAGGSLSLSCAASGRLFNYYAMGWYRQAPGKERELVAAISSSGGRTYYADSVKGRFTISRDNAKNTVYLQMNCLKPEDTAVFYCAAYDSLRYSTYDYWGQGTQVTVSS	high polyreactivity

Sequence	polyreactivity (PSR sort gate)
QVQLVESGGGLVQAGGSLRLSCAASGSTCDRYAMGWYRQAPGKERELVAAITDTGGSTYYADSVKGRFTISRDNAKNTVYLQMNSLKPEDTAVFYCAKGYFWSSYVSSRYGSWGQGTQVTVSS	high polyreactivity
QVQLVESGGGLVQAGGSLRLSCAASGSIFGTNGMGWYRQAPGKERELVAAITRRGGSTYADSVKGRFTISRDNAKNTVYLQMNSLKPEDTAVYYCAAQGYLRLRTHFNYWGQGTQVTVSS	low polyreactivity
QVQLVESGGGLVQAGGSLRLSCAASGRTFPYNAMGWYRQAPGKERELVAAITQSAGRTYYADSVKGRFTISRDTAKYTVYFQMNSLKPEDTAVYYCNTVTVAYGYTRLYAQYYYWGQGTQVTVSS	high polyreactivity
QVQLVESGGGLVQAGGSLRLSCAASGSILLYYTMGWYRQAPGKERELVASITSGGRTYYADSVKGRFTISRDNAKNTVYLQMNSLKPEDTAVYFCAADVWKLYDYWGQGTQVTVSS	low polyreactivity
QVQLVESGGGLVQAGGSLLLSCAASVFIYRWYAMGWYRPAPGKERELVAGISASGGSTYYADSVKGRFTISRDNAKNTVYLQMNSLKPEDTAVYYCAAYRRNSRWELDYWGQGTQVTVSS	high polyreactivity
QVQLVESGGGLVQAGGSLRLSCSASGSIFASNTMGWYRQAPGKERELVAGITKIGSSTYYADSVKGRFTISRDNAKNTFYLQMKSLKPEDTAVSYCKAYGPNIYSSRYDYWVQGTQVTVSS	low polyreactivity
QVQLVESGGGLVQAGGSLRLSCAASGSTFNYYAMGWDRQAPGTVRELVAAITRNGGRKYYADSVKGRFRLSRDNAKNTVYLQMNSLKPEETAVYYCATDTYSYRSIHDMGYWGQGTQVTVSS	high polyreactivity
QVQLVESGGGLVQAGGSLRLSCAASGRIFYLYAMGWYRQAPGKERELVATINTSGGITYYADSVKGRFTISRDNAKNTVYLQMNSLKPEDTAVYYCNADWEWLYFYFRPGGYWGQGTQVTVSS	low polyreactivity
QDQVVESGGGLVQAGGSLRLSCAASGRTFAIYAMGWYRQAPGKEREFVAAITWRSGSTYYADSVKGRFTISRDNAKNTVYLQMMSVKPEDTAVYFCAAYPYSYLQLMDYWGQGTQVTVSS	high polyreactivity
QVQLVESGGGLVQAGGSLRLSCAASGVTFRLDAMGCYRQAPGKDRELVAAISRSGTSTYYADSVKGRFTISRDNPKNTVYLHMNTRKPDDTAVYYCNTARYRYAWYTRYVSWGQGTQVTVSS	high polyreactivity
QVQLVESGGGLVQAGGSLRLSCAASGRIFWGYAMGWYRQAPGKEREVVAAISWSGGSTYYADSVKGRFTISRDNAKNTVYLQMNSLKPEDTAVYYCAALRFQSYNYWGQGTQVTVSS	high polyreactivity
QVQLVESGGGLVQAGGSLRLSCAASGSTFSRYAMGWYRQAPGKERELVAAISRRAGSTYYADSVKGRFTISRDNAKNTVYLQMNSLKPEDTAVYYCAARTWTENRDGDYWGQGTQVTVSS	high polyreactivity
QVQLVESGGGLVQAGGSLRLSCSASGSTFTWYAMGWYRQATGKERELVADISNGGGSTYYADSVKGRFTISRDNEKNTVYLQINSLKPEDTEVYYCAAESIPYYRYDYWGQGTQVTVSS	low polyreactivity
QVQLVESGGDLVQAGGSLRLSCAASGSIFYINAMGWYRQAPGKERELVASISYSGTSTYYADSVKGRFTISRDNAKNTVYLQMNSLKPEDTAVYYCNSEDTPGAGDGYWGQGTQVTVSS	low polyreactivity
QVQLVESVGGLVQAGGSLRLSCAASGSIFVNNAMGWYRQAPGKERELVAAISSRSSRTFYADSVKGRFTISRDNAKNTVYLQINSLKPEDTAVYYCNAVGGRKFGEYDYWGQGTQVTVSS	high polyreactivity
QVQLVESGGGLVQAGGSLRLSCAASGSIFEGYVMGWYRQAPGKERELVATISFSGGSTYYADSVKGRFTISRDNAKNTVYLQMNSLKPEDTAVYYCNALVYHTKGDYGYWGQGTQVTVSS	low polyreactivity
QVQLVESGGGLVQAGGSLRLSCAASGLIFGYYAMGWYRQAPGKESELVDAFSFSGGSTYYADSVKGRFTISRDNAKNTVYLQMNSLKPEDTAVYYCAADLDGSSEYEYWGQCTQVTVSS	low polyreactivity
QVQLVESGGGLVQAGGRHRLSCAASGFIFHVYAMGWYRQAPGKERELVAAISSGGSTYYADSVKGRFTISRDNAKNTVYLQMNSLKPEDTAVYYCNGARSRYRYRYDYWGQGTQVTVSS	high polyreactivity
QVQLVESGGGLVQAGGSLRLSCAASGSTFHRNSMGWYRQAPGKERELVASISIGGSTNYADSVKGRFTISRDNAKNTVYLQMNSLKPEDTAVYYCATEPNPRRPRVDYDYWGQGTQVTVSS	low polyreactivity
QVQLVESGGGLVQAGGSLSLSCAASGSTFAYYAMGGYRQAPGKERELVAGITWTGGSTYYADSVKGRFTISRDNAKNTVYLQMNSLKPEDTAVYYCAVTYPYGYEYDHWGQGTQVTVSS	low polyreactivity
QDQLVESGGGLVQAGGSLRLSCAASGFTFYRNAMGWYRQAPGKERELVAAISRGGRTYYADSVKGRFTISRDNAKNTVYLQMNSLNPEDTAVYYCAVGYSGYVSSMDYWGQGTQVTVSS	high polyreactivity
